Assay results as given in patent publication US20210380637A1.
Bridges are numbered along the chain shown (N, C = ends).

How the values were obtained:
[1] = target: human serum-derived γ-globulin (Sigma-Aldrich); assay: DBC on peptide-immobilized column, 0 NaOH wash cycles
[2] = target: human serum-derived γ-globulin (Sigma-Aldrich); assay: DBC on peptide-immobilized column, 0 NaOH wash cycles (reference)
[3] = target: human serum-derived γ-globulin (Sigma-Aldrich); assay: DBC on peptide-immobilized column after 1 wash cycle with 0.1 M NaOH
[4] = target: human serum-derived γ-globulin (Sigma-Aldrich); assay: DBC on peptide-immobilized column after 2 wash cycles with 0.1 M NaOH
[5] = target: human serum-derived γ-globulin (Sigma-Aldrich); assay: DBC on peptide-immobilized column after 5 wash cycles with 0.1 M NaOH
[6] = target: human serum-derived γ-globulin (Sigma-Aldrich); assay: DBC on peptide-immobilized column after 10 wash cycles with 0.1 M NaOH
[7] = target: human IgG; assay: SPR (BIAcore T200), human IgG immobilized on chip, peptide injected at 15.6-1000 nM
[8] = target: human serum-derived γ-globulin (Sigma-Aldrich); assay: column chromatography, peptide immobilized on 1 mL NHS-activated column, 1 mg/mL human γ-globulin at 1 mL/min

| Binder | DBC 10% [1] [mg/mL] | DBC 10% (% NaOH wash cycle 0) [2] [%] | DBC 10% [3] [mg/mL] | DBC 10% (% NaOH wash cycle 0) [3] [%] | DBC 10% [4] [mg/mL] | DBC 10% (% NaOH wash cycle 0) [4] [%] | DBC 10% [5] [mg/mL] | DBC 10% (% NaOH wash cycle 0) [5] [%] | DBC 10% [6] [mg/mL] | DBC 10% (% NaOH wash cycle 0) [6] [%] | Kd [7] [nM] | koff [7] [s⁻¹] | kon [7] [M⁻¹ s⁻¹] | DBC (dynamic binding capacity, 10% breakthrough) [8] [mg/mL-column] |
| --- | --- | --- | --- | --- | --- | --- | --- | --- | --- | --- | --- | --- | --- | --- |
| {NH2‑PEG4}-GPDCAYHRGELVWCTFH-NH2 (disulfide 4-14) | 13.5 | 100 | 12.4 | 91.9 | 11.5 | 85.2 | 8.9 | 65.9 | 6.1 | 45.2 |  |  |  |  |
| GPDCAYHRGELVWCTFH (N-terminal H2N-PEG4; C-terminal amide; position 4 built as homoserine (Hse), its side-chain hydroxyl chlorinated and reacted with Cys 14, so that the two outer cysteine positions (4 and 14) are joined by the linker of drawing CHEM-US-00008 instead of a disulfide) | 9.4 | 100 | 9.5 | 101 | 9.4 | 100 | 9.2 | 97.9 | 8.9 | 94.7 | 340 | 0.22 | 650000 | 9.4 |
| {NH2‑PEG4}-GPDCAYHRGELVWCTFH-NH2 (linker 4-14 via 1,3‑dichloro‑2‑propanone) |  |  |  |  |  |  |  |  |  |  | 4900 | 0.005 |  | 2.3 |
